Measurements as given in publication PMC5079630, “STAT2 Is a Pervasive Cytokine Regulator due to Its Inhibition of STAT1 in Multiple Signaling Pathways” (PLoS Biology, 2016).
Values belong to the binder of their own block, whether it stands above or below them.

Molecular target: T1, STAT1 N domain (aminoterminal domain), recombinant
T1 chain: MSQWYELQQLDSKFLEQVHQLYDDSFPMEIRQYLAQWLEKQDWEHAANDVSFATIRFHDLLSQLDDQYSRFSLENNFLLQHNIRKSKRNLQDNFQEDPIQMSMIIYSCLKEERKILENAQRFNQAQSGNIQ
Assay: AUC; sedimentation equilibrium of purified recombinant N domains, homo- and heterotypic associations (dimer to monomers); STAT1 N domain and mEGFP-tagged STAT2 N domain at final equimolar concentrations of 2.5, 10, and 40 μM
Conditions: both partners purified

fold stronger than STAT1 N domain homodimers: ≥ 1000 fold
B1: STAT2 N domain (aminoterminal domain), recombinant, mEGFP-tagged (domain or fragment)
chain: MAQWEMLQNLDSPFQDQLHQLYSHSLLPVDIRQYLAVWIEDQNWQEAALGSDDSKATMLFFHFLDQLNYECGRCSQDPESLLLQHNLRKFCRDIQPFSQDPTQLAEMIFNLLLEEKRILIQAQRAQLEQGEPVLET
modifications: limits not given; N domain taken up to the start of the core region (P52630 region from 138), homologous to STAT1 1-131; mEGFP and Strep-tag omitted / limits not printed (S1 Text/ref. 22); N domain

fold stronger than STAT2 N domain homodimers: ~50 fold
B2: STAT1 N domain (aminoterminal domain), recombinant (domain or fragment)
chain: T1 chain
modifications: limits not printed (S1 Text/ref. 22); N domain taken up to the start of the conventional STAT1 core fragment (132-713); Strep-tag omitted / limits not printed (S1 Text/ref. 22); N domain taken up to …
